# Test results taken from patent US20230265146A1 (AMUNIX PHARMACEUTICALS, published 2023).
# Target: T1, human IL-12 receptor on HEK-Blue IL-12 reporter cells (human, UniProt P42701 24-662; Q99665 24-862)
# T1 construct: whole, on cells; also called 293 HEK-IL-12 reporter cells; HEK-Blue IL12 reporter cells (InvivoGen)
# Assay: Flow cytometry (MFI AF488) on HEK-Blue IL-12 reporter cells; bound protein detected with a fluorescent anti-His-tag antibody
# Experimental: HEK-Blue IL-12 reporter cells (Invivogen, as described in Example 8) that express the human IL-12 receptor were used to assess binding of the IL12 constructs to the IL-12 receptor. Increasing concentrations of an exemplified “XTENylated IL12” construct (SEQ ID NO: 2) (1 μM) containing a recombinant single chain mouse IL12 with an N-terminal his-tag plus an XTEN sequence followed by a release segment sequence were incubated with 50,000 293HEK-IL-12 reporter cells that were subsequently washed and surface bound IL12 monitored by flow cytometry using a fluorescent-labelled anti-His-tag antibody for detection. Binding by the XTENylated IL12 was compared to binding of the reference IL-12 construct (SEQ ID NO:4) that contained a recombinant single chain mouse IL-12 and a C-terminal His-tag. Due to release of the His-tag from the XTENylated IL-12 following its activation with human matrix metallopeptidase 9 (MMP9), we were unable to assess IL-12 binding of its activated form in this assay. The XTEN fragment released by MMP9 cleavage retained the His-tag and was used as a specificity control for binding. As shown in FIGS. 9A-9B, the XTEN, when present in the fusion protein masked the cytokine binding to its corresponding IL12 receptor.
# T1 sequence (Q99665 24-862, chain 2 of 2, other chains not shown): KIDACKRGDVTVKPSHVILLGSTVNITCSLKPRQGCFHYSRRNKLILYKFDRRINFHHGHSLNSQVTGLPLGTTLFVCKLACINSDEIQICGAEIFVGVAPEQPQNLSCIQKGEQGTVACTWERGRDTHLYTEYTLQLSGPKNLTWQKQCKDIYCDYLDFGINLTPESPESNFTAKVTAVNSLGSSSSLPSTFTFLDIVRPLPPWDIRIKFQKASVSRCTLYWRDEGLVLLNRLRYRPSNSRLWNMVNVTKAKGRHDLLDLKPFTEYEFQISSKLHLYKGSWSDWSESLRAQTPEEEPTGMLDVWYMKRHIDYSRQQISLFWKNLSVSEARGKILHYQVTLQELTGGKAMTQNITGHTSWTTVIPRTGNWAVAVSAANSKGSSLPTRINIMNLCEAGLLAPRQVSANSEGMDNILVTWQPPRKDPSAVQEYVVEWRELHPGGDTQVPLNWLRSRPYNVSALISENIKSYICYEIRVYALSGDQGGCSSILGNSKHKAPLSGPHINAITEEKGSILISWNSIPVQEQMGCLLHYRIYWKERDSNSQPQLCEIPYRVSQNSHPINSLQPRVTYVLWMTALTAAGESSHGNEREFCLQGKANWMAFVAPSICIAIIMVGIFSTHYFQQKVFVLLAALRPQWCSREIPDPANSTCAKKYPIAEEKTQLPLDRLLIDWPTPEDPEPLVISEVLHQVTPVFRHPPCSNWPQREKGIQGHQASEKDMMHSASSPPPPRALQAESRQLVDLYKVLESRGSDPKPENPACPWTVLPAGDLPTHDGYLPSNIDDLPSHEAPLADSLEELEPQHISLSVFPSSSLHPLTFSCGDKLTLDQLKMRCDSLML
binder,measurement,value
Reference IL12 construct (SEQ ID NO: 4) (ligand) MWELEKDVYVVEVDWTPDAPGETVNLTCDTPEEDDITWTSDQRHGVIGSGKTLTITVKEFLDAGQYTCHKGGETLSHSHLLLHKKENGIWSTEILKNFKNKTFLKCEAPNYSGRFTCSWLVQRNMDLKFNIKSSSSSPDSRAVTCGMASLSAEKVTLDQRDYEKYSVSCQEDVTCPTAEETLPIELALEARQQNKYENYSTSFFIRDIIKPDPPKNLQMKPLKNSQVEVSWEYPDSWSTPHSYFSLKFFVRIQRKKEKMKETEEGCNQKGAFLVEKTSTEVQCKGGNVCVQAQDRYYNSSCSKWACVPCRVRSGGGGSGGGGSGGGGSRVIPVSGPARCLSQSRNLLKTTDDMVKTAREKLKHYSCTAEDIDHEDITRDQTSTLKTCLPLELHKNESCLATRETSSTTRGSCLPPQKTSLMMTLCLGSIYEDLKMYQTEFQAINAALQNHNHQQIILDKGMLVAIDELMQSLNHNGETLRQKPPVGEADPYRVKMKLCILLHAFSTRVVTINRVMGYLSSAHHHHHHHH,EC50,4.5 nM
